Source: US11135246B2, “Peptides and combination of peptides for use in immunotherapy against leukemias and other cancers” (Immatics Biotechnologies GmbH, priority 2017, dated 2021)

How the values were obtained:
[1] = molecular target: HLA-A*01:01 (Homo sapiens, UniProt P04439, A114D/A174V/A182V/D101N/D185E/E176A/E190D/L180R/Q94H/R68K/S129P/T187R/V100A/V91M/W191G); assay: MHC binding assay, UV-ligand exchange with β2m ELISA, HLA-A*01:01; conditions: peptide exchange yield
Text: (§1) Candidate peptides for T cell based therapies according to the present invention were further tested for their MHC binding capacity (affinity). The individual peptide-MHC complexes were produced by UV-ligand exchange, where a UV-sensitive peptide is cleaved upon UV-irradiation, and exchanged with the peptide of interest as analyzed. Only peptide candidates that can effectively bind and stabilize the peptide-receptive MHC molecules prevent dissociation of the MHC complexes. To determine the yield of the exchange reaction, an ELISA was performed based on the detection of the light chain (β2m) of stabilized MHC complexes. The assay was performed as generally described in Rodenko et al. (Rodenko et al., 2006).
(§2) 96 well MAXISorp plates (NUNC) were coated over night with 2 ug/ml streptavidin in PBS at room temperature, washed 4× and blocked for 1 h at 37° C. in 2% BSA containing blocking buffer. Refolded HLA-A*02:01/MLA-001 monomers served as standards, covering the range of 15-500 ng/ml. Peptide-MHC monomers of the UV-exchange reaction were diluted 100-fold in blocking buffer. Samples were incubated for 1 h at 37° C., washed four times, incubated with 2 ug/ml HRP conjugated anti-β2m for 1 h at 37° C., washed again and detected with TMB solution that is stopped with […]. Absorption was measured at 450 nm. Candidate peptides that show a high exchange yield (preferably higher than 50%, most preferred higher than 75%) are generally preferred for a generation and production of antibodies or fragments thereof, and/or T cell receptors or fragments thereof, as they show sufficient avidity to the MHC molecules and prevent dissociation of the MHC complexes.

[2] = molecular target: HLA-A*03:01 (Homo sapiens, UniProt P04439); assay: MHC binding assay, UV-ligand exchange with β2m ELISA, HLA-A*03:01; conditions: peptide exchange yield
Text: as §1, §2

[3] = molecular target: HLA-B*07:02 (Homo sapiens, UniProt P01889); assay: MHC binding assay, UV-ligand exchange with β2m ELISA, HLA-B*07:02; conditions: binding to HLA-B*07:02, UV-ligand exchange
Text: as §1, §2

| Substance | Peptide exchange [2] | Peptide exchange (MHC class I binding score, peptide exchange yield) [3] | also measured |
| --- | --- | --- | --- |
| 1 (LTEGHSGNYY; listed as Homo sapiens) [compound 1] |  |  | Peptide exchange [1]: “++++” (>75% = ++++) |
| 3 (YINPAKLTPY; listed as Homo sapiens) [compound 3] |  |  | Peptide exchange [1]: “++” (>20% = ++) |
| 4 (ALDQNKMHY; listed as Homo sapiens) [compound 4] |  |  | Peptide exchange [1]: “+++” (>50 =+++) |
| 5 (GTDVLSTRY; listed as Homo sapiens) [compound 5] |  |  | Peptide exchange [1]: “+++” (>50 =+++) |
| 28 (VILESIFLK; listed as Homo sapiens) [compound 28] | “++” (>20% = ++) |  |  |
| 29 (RIYDEILQSK; listed as Homo sapiens) [compound 29] | “++” (>20% = ++) |  |  |
| 30 (RTYGFVLTF; listed as Homo sapiens) [compound 30] | “++” (>20% = ++) |  |  |
| 32 (KTSNIVKIK; listed as Homo sapiens) [compound 32] | “++” (>20% = ++) |  |  |
| 33 (SVFEGDSIVLK; listed as Homo sapiens) [compound 33] | “++” (>20% = ++) |  |  |
| 34 (SVYSETSNMDK; listed as Homo sapiens) [compound 34] | “+++” (>50 = +++) |  |  |
| 35 (ATKSPAKPK; listed as Homo sapiens) [compound 35] | “+++” (>50 = +++) |  |  |
| 36 (KAKAAAKPK; listed as Homo sapiens) [compound 36] | “++” (>20% = ++) |  |  |
| 37 (KAKKPAGAAK; listed as Homo sapiens) [compound 37] | “+++” (>50 = +++) |  |  |
| 38 (KARKSAGAAK; listed as Homo sapiens) [compound 38] | “+++” (>50 = +++) |  |  |
| 40 (RSKEYIRKK; listed as Homo sapiens) [compound 40] | “+” (>10% = +) |  |  |
| 41 (SVAHLLSKY; listed as Homo sapiens) [compound 41] | “++” (>20% = ++) |  |  |

| Substance | Peptide exchange [2] | Peptide exchange (MHC class I binding score, peptide exchange yield) [3] | also measured |
| --- | --- | --- | --- |
| 42 (SVSSSTHFTR; listed as Homo sapiens) [compound 42] | “++” (>20% = ++) |  |  |
| 43 (KLMETSMGF; listed as Homo sapiens) [compound 43] | “++” (>20% = ++) |  |  |
| 44 (KVYDPVSEY; listed as Homo sapiens) [compound 44] | “++” (>20% = ++) |  |  |
| 45 (VVFPFPVNK; listed as Homo sapiens) [compound 45] | “+++” (>50 = +++) |  |  |
| 46 (RVFPSPMRI; listed as Homo sapiens) [compound 46] | “++” (>20% = ++) |  |  |
| 47 (SVLDLSVHK; listed as Homo sapiens) [compound 47] | “++” (>20% = ++) |  |  |
| 48 (RIKPPGPTAVPK; listed as Homo sapiens) [compound 48] | “+++” (>50 = +++) |  |  |
| 49 (GLLEEALFY; listed as Homo sapiens) [compound 49] | “++” (>20% = ++) |  |  |
| 51 (ASTTVLALK; listed as Homo sapiens) [compound 51] | “++” (>20% = ++) |  |  |
| 52 (KAFNQSSTLTK; listed as Homo sapiens) [compound 52] | “+++” (>50 = +++) |  |  |
| 208 (KLNPQQAPLY; listed as Homo sapiens) [compound 208] | “++” (>20% = ++) |  |  |
| 209 (KTLPAMLGTGK; listed as Homo sapiens) [compound 209] | “++” (>20% = ++) |  |  |
| 210 (RMYSQLKTLQK; listed as Homo sapiens) [compound 210] | “+++” (>50 = +++) |  |  |
| 211 (ATYNKQPMYR; listed as Homo sapiens) [compound 211] | “+++” (>50 = +++) |  |  |
| 212 (LLWHWDTTQSLK; listed as Homo sapiens) [compound 212] | “+” (>10% = +) |  |  |
| 213 (RVYNIYIRR; listed as Homo sapiens) [compound 213] | “++” (>20% = ++) |  |  |

More lines, main results first:

| Peptide exchange [2] | Peptide exchange (MHC class I binding score, peptide exchange yield) [3] | Substance | also measured |
| --- | --- | --- | --- |
| “+++” (>50 = +++) |  | 214 (ATGAATPKK; listed as Homo sapiens) [compound 214] |  |
| “++” (>20% = ++) |  | 215 (KATGAATPK; listed as Homo sapiens) [compound 215] |  |
| “++” (>20% = ++) |  | 216 (RIKAPSRNTIQK; listed as Homo sapiens) [compound 216] |  |
| “++” (>20% = ++) |  | 217 (TTVPHVFSK; listed as Homo sapiens) [compound 217] |  |
| “++” (>20% = ++) |  | 218 (RVLTGVFTK; listed as Homo sapiens) [compound 218] |  |
| “+++” (>50 = +++) |  | 219 (HSYSSPSTK; listed as Homo sapiens) [compound 219] |  |
| “++” (>20% = ++) |  | 220 (SISNLVFTY; listed as Homo sapiens) [compound 220] |  |
| “+++” (>50 = +++) |  | 221 (LLNRHILAH; listed as Homo sapiens) [compound 221] |  |
|  | “++++” (>75% = ++++) | 229 (SPLGSLARSSL; listed as Homo sapiens) [compound 229] |  |
|  | “+++” (>50 = +++) | 230 (KPMKSVLVV; listed as Homo sapiens) [compound 230] |  |
|  | “++” (>20% = ++) | 231 (MPLSTIREV; listed as Homo sapiens) [compound 231] |  |
|  | “+++” (>50 = +++) | 232 (APRPAGSYL; listed as Homo sapiens) [compound 232] |  |
|  | “+++” (>50 = +++) | 233 (SPRVYWLGL; listed as Homo sapiens) [compound 233] |  |
|  | “++” (>20% = ++) | 234 (SPKESENAL; listed as Homo sapiens) [compound 234] |  |
|  | “++” (>20% = ++) | 235 (SPSLPSRTL; listed as Homo sapiens) [compound 235] |  |
|  | “+++” (>50 = +++) | 236 (RPSNKAPLL; listed as Homo sapiens) [compound 236] |  |
|  | “++” (>20% = ++) | 237 (SPWLHAPSL; listed as Homo sapiens) [compound 237] |  |
|  | “+++” (>50 = +++) | 238 (SPRSWIQVQI; listed as Homo sapiens) [compound 238] |  |

| Peptide exchange [2] | Peptide exchange (MHC class I binding score, peptide exchange yield) [3] | Substance | also measured |
| --- | --- | --- | --- |
|  | “++” (>20% = ++) | 239 (APSKTSLIM; listed as Homo sapiens) [compound 239] |  |
|  | “+++” (>50 = +++) | 240 (SPSLPNITL; listed as Homo sapiens) [compound 240] |  |
|  | “+++” (>50 = +++) | 241 (APAPAEKTPV; listed as Homo sapiens) [compound 241] |  |
|  | “++” (>20% = ++) | 242 (SPFSFHHVL; listed as Homo sapiens) [compound 242] |  |
|  | “++” (>20% = ++) | 243 (LPKVQSIQL; listed as Homo sapiens) [compound 243] |  |
|  | “+++” (>50 = +++) | 244 (MPSSDTTVTF; listed as Homo sapiens) [compound 244] |  |
|  | “++” (>20% = ++) | 245 (SPLSHHSQL; listed as Homo sapiens) [compound 245] |  |
|  | “++” (>20% = ++) | 246 (YPGWHSTTI; listed as Homo sapiens) [compound 246] |  |
|  | “++” (>20% = ++) | 247 (QPSPARAPAEL; listed as Homo sapiens) [compound 247] |  |
|  | “++” (>20% = ++) | 248 (LPYDSKHQI; listed as Homo sapiens) [compound 248] |  |
|  | “++” (>20% = ++) | 249 (SPADHRGYASL; listed as Homo sapiens) [compound 249] |  |
|  | “++” (>20% = ++) | 250 (VPNLQTVSV; listed as Homo sapiens) [compound 250] |  |
|  | “+++” (>50 = +++) | 251 (QPRLFTMDL; listed as Homo sapiens) [compound 251] |  |
|  | “++” (>20% = ++) | 252 (RPHIPISKL; listed as Homo sapiens) [compound 252] |  |
|  | “+++” (>50 = +++) | 253 (RPFADLLGTAF; listed as Homo sapiens) [compound 253] |  |
|  | “+++” (>50 = +++) | 254 (SPRNLQPQRAAL; listed as Homo sapiens) [compound 254] |  |
|  | “++” (>20% = ++) | 255 (YPGSDRIML; listed as Homo sapiens) [compound 255] |  |
